# This sample holds only a part of the variants without activity.
# What was measured:
# biotinyl-Trp-oxazolone = test: self-aminoacylation, catalytic enhancement (BWO) (fold over background); higher = more active; k-Seq, kA / k0A0; sequences stand for … in GGGAAUGGAUCCACAUCUACGAAUUC…UUCACUGCAGACUUGACGAAGCUG
# Outline: (§1)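 Mutagenized RNA pools with a 21-nt variable region (0.43 μM) were reacted with each biotinyl-aminoacyl-oxazolone at 2–1250 μM for 90 minutes at room temperature, in 50 μL HEPES/NaCl/KCl/MgCl2/CaCl2 buffer containing 5% acetonitrile at pH 6.9–7.0. RNA captured on streptavidin was quantified by triplicate qPCR and by Illumina sequencing. The fraction reacted for each sequence was fit to a pseudo-first-order model with bootstrapping, and catalytic enhancement is the median kA divided by the uncatalyzed rate, taken as the low-activity peak of a bimodal Gaussian fit.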
# biotinyl-Ile-oxazolone = test: self-aminoacylation, catalytic enhancement (BIO) (fold over background); higher = more active; k-Seq, kA / k0A0; sequences stand for … in GGGAAUGGAUCCACAUCUACGAAUUC…UUCACUGCAGACUUGACGAAGCUG
# Outline: as §1
# biotinyl-Met-oxazolone = test: self-aminoacylation, catalytic enhancement (BMO) (fold over background); higher = more active; k-Seq, kA / k0A0; sequences stand for … in GGGAAUGGAUCCACAUCUACGAAUUC…UUCACUGCAGACUUGACGAAGCUG
# Outline: as §1
# biotinyl-Val-oxazolone = test: self-aminoacylation, catalytic enhancement (BVO) (fold over background); higher = more active; k-Seq, kA / k0A0; sequences stand for … in GGGAAUGGAUCCACAUCUACGAAUUC…UUCACUGCAGACUUGACGAAGCUG
# Outline: as §1
# biotinyl-Leu-oxazolone = test: self-aminoacylation, catalytic enhancement (BLO) (fold over background); higher = more active; k-Seq, kA / k0A0; sequences stand for … in GGGAAUGGAUCCACAUCUACGAAUUC…UUCACUGCAGACUUGACGAAGCUG
# Outline: as §1
# biotinyl-Phe-oxazolone = test: self-aminoacylation, catalytic enhancement (BFO) (fold over background); higher = more active; k-Seq, kA / k0A0; sequences stand for … in GGGAAUGGAUCCACAUCUACGAAUUC…UUCACUGCAGACUUGACGAAGCUG
# Outline: as §1
Sequence,self-aminoacylation (biotinyl-Trp-oxazolone),self-aminoacylation (biotinyl-Ile-oxazolone),self-aminoacylation (biotinyl-Met-oxazolone),self-aminoacylation (biotinyl-Val-oxazolone),self-aminoacylation (biotinyl-Leu-oxazolone),self-aminoacylation (biotinyl-Phe-oxazolone)
ACUACCCUGGUCAUAGAGUGA [Fam2.1 aminoacylation ribozyme variant],7.77,3.26,6.89,3.19,7.11,38.1
ACUACCCUGGUCAUCGAGUGC [Fam2.1 aminoacylation ribozyme variant],4.17,2.18,5.55,2.44,5.6,10.1
ACUACCCUGGUCAUCGAGUGG [Fam2.1 aminoacylation ribozyme variant],20.2,7,20.8,8.27,22.5,110
ACUACCCUGGUCAUCGAUUGA [Fam2.1 aminoacylation ribozyme variant],1.16,1.01,1.05,1.02,1.16,1.59
ACUACCCUGGUUAUCGAGUGA [Fam2.1 aminoacylation ribozyme variant],7.91,3.67,7.03,4.43,8.45,33.1
ACUAUCCUGGUCAUCGAGUGA [Fam2.1 aminoacylation ribozyme variant],8.06,3.7,6.19,3.62,6.46,18.4
ACUCAACUAGGUCAUCGGGUG [Fam2.2 aminoacylation ribozyme variant],5.38,5.56,5.62,4.88,6.97,48
ACUCACCUAGCUCAUCGGGUG [Fam2.2 aminoacylation ribozyme variant],2.44,2.02,2.47,1.92,2.17,0.904
ACUCACCUAGGUCACCGGGUG [Fam2.2 aminoacylation ribozyme variant],7.92,4.71,3.64,5.05,7.47,34.2
ACUCACCUAGGUCAUCGGCUG [Fam2.2 aminoacylation ribozyme variant],2.35,2.1,2,3.01,1.31,7.96
ACUCACCUAGGUCAUCGGGAG [Fam2.2 aminoacylation ribozyme variant],2.46,2.33,2.48,2.08,2.28,1.04
ACUCACCUAGGUCAUCGGGCG [Fam2.2 aminoacylation ribozyme variant],2.63,3.12,2.66,2.63,3.85,2.07
ACUCACCUAGGUCAUCGGGGG [Fam2.2 aminoacylation ribozyme variant],4.06,3.75,3.42,3.19,3.57,22.1
ACUCACCUAGGUCAUCGGGUG [Fam2.2 aminoacylation ribozyme variant],13.9,9.45,15.9,9.32,19.8,105
ACUCACGUAGGUCAUCGGGUG [Fam2.2 aminoacylation ribozyme variant],3.88,2.89,3.04,3.73,4.27,32.9
ACUCACUUAGGUCAUCGGGUG [Fam2.2 aminoacylation ribozyme variant],7.25,4.73,5.78,5.12,7.98,49.6
ACUCAGCUAGGUCAUCGGGUG [Fam2.2 aminoacylation ribozyme variant],7.25,4.07,4.79,4.84,4.79,30.7
ACUCCCCUGGUCAUCGAGUGA [Fam2.1 aminoacylation ribozyme variant],6.48,3.18,6.39,3.69,6.71,42.7
AGAACCCUGGUCAUCGAGUGA [Fam2.1 aminoacylation ribozyme variant],56.9,19.6,57.5,21.2,58.5,354
AGGUUGGCUAAUAGUCGCAAG [Fam3.1 aminoacylation ribozyme variant],2.29,1.74,1.97,1.7,1.88,2.19
AGGUUUGCGAAUAGUCGCAAG [Fam3.1 aminoacylation ribozyme variant],3.06,1.63,2.24,1.75,1.82,7.75
AGGUUUGCUAAUAGUCGGAAG [Fam3.1 aminoacylation ribozyme variant],3.12,1.22,1.24,0.944,1.02,12.2
AGGUUUGCUAAUAGUCUCAAG [Fam3.1 aminoacylation ribozyme variant],2.89,1.17,1.36,1.22,1.22,9.24
AGGUUUGCUAAUAGUUGCAAG [Fam3.1 aminoacylation ribozyme variant],0.893,1.17,0.863,0.924,0.994,1.44
AGGUUUGCUAAUCGUCGCAAG [Fam3.1 aminoacylation ribozyme variant],1.98,1.42,1.44,1.34,1.45,2.43
AGUACCCUGGUAAUCGAGUGA [Fam2.1 aminoacylation ribozyme variant],8.92,3.21,7.78,3.23,8.28,47.6

Sequence,self-aminoacylation (biotinyl-Trp-oxazolone),self-aminoacylation (biotinyl-Ile-oxazolone),self-aminoacylation (biotinyl-Met-oxazolone),self-aminoacylation (biotinyl-Val-oxazolone),self-aminoacylation (biotinyl-Leu-oxazolone),self-aminoacylation (biotinyl-Phe-oxazolone)
AGUACCCUGGUCAUCGAGAGA [Fam2.1 aminoacylation ribozyme variant],0.788,0.994,0.888,0.901,1.14,1.36
AGUACCCUGGUCAUCGAGUGA [Fam2.1 aminoacylation ribozyme variant],13.6,6.11,13.2,6.48,12.8,28.7
AGUACCCUGGUCGUCGAGUGA [Fam2.1 aminoacylation ribozyme variant],1.54,1.37,1.05,1.24,1.53,8.09
AGUACCCUGGUUAUCGAGUGA [Fam2.1 aminoacylation ribozyme variant],9.24,3.63,7.87,4.26,9.55,37.4
AGUCACCCAGGUCAUCGGGUG [Fam2.2 aminoacylation ribozyme variant],4.54,5.28,4.56,4.29,4.72,57.4
AGUCACCGAGGUCAUCGGGUG [Fam2.2 aminoacylation ribozyme variant],5.81,4.06,5.09,4.46,4.81,32.8
AGUCACCUAAGUCAUCGGGUG [Fam2.2 aminoacylation ribozyme variant],6.74,4.94,6.86,4.5,6.89,69.3
AGUCACCUAGAUCAUCGGGUG [Fam2.2 aminoacylation ribozyme variant],4.5,3.96,3.33,3.06,3.5,17.5
AGUCACCUAGGUCAACGGGUG [Fam2.2 aminoacylation ribozyme variant],3.02,2.57,2.25,2.08,3.22,9.17
AGUCACCUAGGUCAUCGGGAG [Fam2.2 aminoacylation ribozyme variant],2.56,1.65,1.93,1.76,1.74,1.38
AGUCACCUAGGUCAUCGGGCG [Fam2.2 aminoacylation ribozyme variant],5.95,4.56,5.28,4.05,4.87,25.5
AGUCACCUAGGUCAUCGGGGG [Fam2.2 aminoacylation ribozyme variant],3.68,3.13,3.3,2.9,3.14,17.5
AGUCACCUAGGUCAUCGGUUG [Fam2.2 aminoacylation ribozyme variant],1.82,1.83,1.99,1.71,2.12,10.1
AGUCACCUAGGUCGUCGGGUG [Fam2.2 aminoacylation ribozyme variant],2.71,2.48,2.28,2.43,4.29,12.9
AGUCACCUAGGUGAUCGGGUG [Fam2.2 aminoacylation ribozyme variant],6.05,4.34,4.24,4.38,5.45,24.3
AGUCUCCUAGGUCAUCGGGUG [Fam2.2 aminoacylation ribozyme variant],9.36,5.63,9.95,6.91,12.9,58.7
AGUUCCCUGGUCAUCGAGUGA [Fam2.1 aminoacylation ribozyme variant],10.9,4.54,7.95,5,9.8,43.9
AGUUUUGCUAAUAGUCGCAAG [Fam3.1 aminoacylation ribozyme variant],3.48,2.4,2.35,2.1,2.61,4.55
AUAAACCUGGUCAUCGAGUGA [Fam2.1 aminoacylation ribozyme variant],9.62,4.13,7.78,4.1,8.44,11.4
AUAACACUGGUCAUCGAGUGA [Fam2.1 aminoacylation ribozyme variant],6.89,2.83,4.84,3.06,4.62,14.7
AUAACCCCGGUCAUCGAGUGA [Fam2.1 aminoacylation ribozyme variant],6.89,3.75,7.41,3.32,7.29,32.9
AUAACCCUGGUCAUCAAGUGA [Fam2.1 aminoacylation ribozyme variant],2.39,1.45,2.3,1.27,2.24,2.73
AUAACCCUGGUCAUCGAGUGG [Fam2.1 aminoacylation ribozyme variant],6.21,3.4,8.46,3.38,7.76,20.8
AUAACCCUGGUCAUCGAGUUA [Fam2.1 aminoacylation ribozyme variant],1.12,1.7,2.5,1.34,2.86,4.86
AUAACCCUGGUCAUCGCGUGA [Fam2.1 aminoacylation ribozyme variant],18.7,6.85,16,7.96,18.2,103

# Source: the supplement of paper PMC9233669
